Laboratory results reported in patent publication US20190142963A1 (INDIANA UNIVERSITY RESEARCH AND TECHNOLOGY, published 2019).
Non-standard residues stand in square brackets, D forms with d. No end group written: not given here.

T1: human Klotho β (human, UniProt Q86Z14 1-1044)
T1 sequence (looked up): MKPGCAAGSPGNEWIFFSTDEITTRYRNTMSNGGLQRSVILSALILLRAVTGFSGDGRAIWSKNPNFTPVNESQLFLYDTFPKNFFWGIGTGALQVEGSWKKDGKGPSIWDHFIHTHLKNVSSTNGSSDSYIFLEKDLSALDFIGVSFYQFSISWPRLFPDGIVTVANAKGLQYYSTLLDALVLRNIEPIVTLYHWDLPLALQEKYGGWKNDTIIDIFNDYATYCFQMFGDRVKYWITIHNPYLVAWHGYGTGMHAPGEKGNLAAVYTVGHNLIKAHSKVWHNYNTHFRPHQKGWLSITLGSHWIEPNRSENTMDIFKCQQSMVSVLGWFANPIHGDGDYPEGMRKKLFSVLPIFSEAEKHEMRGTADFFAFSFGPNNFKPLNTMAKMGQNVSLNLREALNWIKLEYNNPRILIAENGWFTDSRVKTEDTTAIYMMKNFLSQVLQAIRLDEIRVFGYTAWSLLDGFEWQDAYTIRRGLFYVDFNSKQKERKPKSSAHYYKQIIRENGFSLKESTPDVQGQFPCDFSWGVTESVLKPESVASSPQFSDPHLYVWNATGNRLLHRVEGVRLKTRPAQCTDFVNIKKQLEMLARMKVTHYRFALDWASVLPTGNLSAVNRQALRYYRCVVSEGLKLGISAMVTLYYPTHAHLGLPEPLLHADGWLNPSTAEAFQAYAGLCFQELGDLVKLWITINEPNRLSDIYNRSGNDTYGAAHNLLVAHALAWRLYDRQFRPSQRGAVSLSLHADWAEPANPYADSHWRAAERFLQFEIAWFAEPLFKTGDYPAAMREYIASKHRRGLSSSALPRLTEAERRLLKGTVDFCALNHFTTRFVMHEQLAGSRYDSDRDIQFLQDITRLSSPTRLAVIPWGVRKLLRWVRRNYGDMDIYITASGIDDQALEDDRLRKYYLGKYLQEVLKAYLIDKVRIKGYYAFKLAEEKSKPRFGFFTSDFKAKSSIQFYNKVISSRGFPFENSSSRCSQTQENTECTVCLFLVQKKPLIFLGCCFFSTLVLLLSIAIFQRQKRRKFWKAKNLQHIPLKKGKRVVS

B1: FGF21 25mer A5 (peptide)
peptide: PPDVASSDPLSMVGPSQGRSPSYAS
B2: FGF21 25mer A7 (peptide)
peptide: PPDVGSADPLSMVGPSQGRSPSYAS
B3: FGF21 25mer A11 (peptide)
peptide: PPDVGSSDPLAMVGPSQGRSPSYAS
B4: FGF19 169-194 K194A (peptide)
peptide: PLETDSMDPFGLVTGLEAVRSPSFEA
B5: FGF21 C25 d2 (peptide)
peptide: P[dP]DVGSSDPLSMVGPSQGRSPSYAS-NH2
B6: FGF21 C25 d3 (peptide)
peptide: PP[dD]VGSSDPLSMVGPSQGRSPSYAS-NH2
B7: FGF21 C25 d6 (peptide)
peptide: PPDVG[dS]SDPLSMVGPSQGRSPSYAS-NH2
B8: FGF21 C25 d15 (peptide)
peptide: PPDVGSSDPLSMVG[dP]SQGRSPSYAS-NH2
B9: FGF21 C25 d16 (peptide)
peptide: PPDVGSSDPLSMVGP[dS]QGRSPSYAS-NH2
B10: FGF21 C25 d17 (peptide)
peptide: PPDVGSSDPLSMVGPS[dQ]GRSPSYAS-NH2
B11: FGF21 C25 d20 (peptide)
peptide: PPDVGSSDPLSMVGPSQGR[dS]PSYAS-NH2
B12: FGF21 C25 d21 (peptide)
peptide: PPDVGSSDPLSMVGPSQGRS[dP]SYAS-NH2
B13: FGF21 C25 d24 (peptide)
peptide: PPDVGSSDPLSMVGPSQGRSPSY[dA]S-NH2
B14: FGF21 C25 d25 (peptide)
peptide: PPDVGSSDPLSMVGPSQGRSPSYA[dS]-NH2
B15: FGF21 C25 d1 (peptide)
peptide: [dP]PDVGSSDPLSMVGPSQGRSPSYAS-NH2

biological target: T1, human Klotho β; experiment: cell-based or functional assay

Molecule | IC-50 of antagonism of FGF21 (pErk1/2, 293 HEK hKLB cells) [µM]
B1 | 0.09
B2 | 0.36
B3 | 0.15
B4 | 0.005

biological target: T1, human Klotho β; experiment: cell-based or functional assay; remark: another data set of the same source

Molecule | % Activity vs C25 [%] | IC50 of antagonism of FGF21 (assay of Example 1) [nM]
B5 | 7.61 | 4720
B6 | 15.6 | 6100
B7 | 32.5 | 1980
B8 | 66.8 | 375
B9 | 46 | 531
B10 | 90.3 | 262
B11 | 2.3 | 33700
B12 | 3.8 | 7800
B13 | 32.3 | 1130
B14 | 119 | 264
B15 | 54.2 | 877

biological target: T1, human Klotho β; experiment: cell-based or functional assay; remark: another data set of the same source

Molecule | IC-50 of antagonism of FGF21 (pErk1/2, 293 HEK hKLB cells) [µM] | IC-50 of antagonistic activity (FIG. 8A) [nM] | % maximal activity, Erk1/2 phosphorylation in 293T HEK hKLB cells (FIG. 9B) [%] | EC-50 of Erk1/2 phosphorylation in 293T HEK hKLB cells (FIG. 9B) [nM] | IC-50 of antagonistic activity (FIG. 8B) [µM]
FGF19 169-194 alanine mutant S174 (from UniProt O95750 191-216) (peptide) | 3.39 | – | – | – | –
FGF19 169-194 K194S (from UniProt O95750 191-216) (peptide) | – | 22.3 | – | – | –
FGF19 169-194 K194L (from UniProt O95750 191-216) (peptide) | – | 17.3 | – | – | –
FGF19 169-194 alanine mutant D173 (from UniProt O95750 191-216) (peptide) | 0.46 | – | – | – | –
FGF19 K194A (from UniProt O95750 25-216) (ligand) | – | – | 31 | 8.1 | –
FGF19 169-194 alanine mutant L184 (from UniProt O95750 191-216) (peptide) | 0.2 | – | – | – | –
FGF19 169-194 alanine mutant T182 (from UniProt O95750 191-216) (peptide) | 0.52 | – | – | – | –
FGF19 169-194 alanine mutant E193 (from UniProt O95750 169-194) (peptide) | 0.85 | – | – | – | –
FGF19 169-194 alanine mutant P190 (from UniProt O95750 191-216) (peptide) | > 2 | – | – | – | –
FGF19 169-194 alanine mutant L170 (from UniProt O95750 191-216) (peptide) | 2.17 | – | – | – | –
FGF19 169-194 alanine mutant S189 (from UniProt O95750 169-194) (peptide) | > 2 | – | – | – | –
FGF19 169-194 alanine mutant V181 (from UniProt O95750 191-216) (peptide) | 1.81 | – | – | – | –
FGF19 169-194 K194E (from UniProt O95750 191-216) (peptide) | – | 87.9 | – | – | –
FGF19 169-194 alanine mutant F192 (from UniProt O95750 191-216) (peptide) | 2.97 | – | – | – | –
FGF19 169-194 alanine mutant T172 (from UniProt O95750 191-216) (peptide) | 1.4 | – | – | – | –
FGF19 169-194 alanine mutant R188 (from UniProt O95750 191-216) (peptide) | 0.38 | – | – | – | –
FGF19 169-194 alanine mutant P169 (from UniProt O95750 191-216) (peptide) | 0.21 | – | – | – | –
FGF19 169-194 alanine mutant G179 (from UniProt O95750 191-216) (peptide) | 1.93 | – | – | – | –
FGF19 169-194 alanine mutant E171 (from UniProt O95750 191-216) (peptide) | 0.12 | – | – | – | –
FGF19 169-194 alanine mutant E185 (from UniProt O95750 191-216) (peptide) | 0.43 | – | – | – | –
FGF19 169-194 alanine mutant S191 (from UniProt O95750 191-216) (peptide) | > 2 | – | – | – | –
FGF19 169-194 alanine mutant V187 (from UniProt O95750 191-216) (peptide) | 0.69 | – | – | – | –
FGF19 169-194 alanine mutant M175 (from UniProt O95750 191-216) (peptide) | 0.15 | – | – | – | –
FGF19 169-194 (from UniProt O95750 169-194) (peptide) | 0.27 | – | – | – | 0.05
FGF19 169-194 alanine mutant G183 (from UniProt O95750 191-216) (peptide) | 0.4 | – | – | – | –

biological target: T1, human Klotho β; experiment: cell-based or functional assay; remark: another data set of the same source

Molecule | % max activity of antagonism of FGF21 (pErk1/2, 293 HEK hKLB cells) [%] | IC-50 of antagonism of FGF21 (pErk1/2, 293 HEK hKLB cells) [nM]
B1 | 102 | 90.1
B2 | 94.5 | 359
B3 | 98 | 102
